Results on four molecules are retold here after patent US20200331998A1 (ALLOGENE THERAPEUTICS, published 2020).

One assay concerns the target T1, hCD19-HIS-AVI (human, UniProt P15391 20-291, limits assumed).
T1 construct: not shown: His and Avi tags
T1 sequence (looked up): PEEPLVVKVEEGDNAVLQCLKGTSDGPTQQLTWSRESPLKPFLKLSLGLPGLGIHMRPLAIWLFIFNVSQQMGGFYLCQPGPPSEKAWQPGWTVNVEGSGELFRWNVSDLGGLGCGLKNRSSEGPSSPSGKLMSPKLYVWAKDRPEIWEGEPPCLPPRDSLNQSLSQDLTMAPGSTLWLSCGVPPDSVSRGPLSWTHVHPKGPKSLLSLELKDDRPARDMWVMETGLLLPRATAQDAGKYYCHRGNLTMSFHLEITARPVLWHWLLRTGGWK
As to the kind of experiment: SPR (Biacore, 25° C.) sandwich assay with buffer/hCD19 injections. The method, then: (§1) Anti-m4G7 purified sub-clone antibodies were tested for binding to m4G7-hFab. Blocking effect was determined using a sandwich assay and binding confirmation to […] was determined using a Biacore assay at 25° C. […] Sensor chip CAP (CAPture chip) #505 was used as a surface. After rehydrating the sensor chip CAP with water at 42° C. for 1 hour, the chip was dried with compressed air. The surface of the chip was conditioned using triplicate 1 min injections of regeneration solution at 10 μl/min. The regeneration solution included 3 parts of Regeneration Stock 1 (8 M guanidine-HCl) with 1 part Regeneration Stock 2 (1 M NaOH). Capture of Biotin CAPture reagent for 5 min at 2 μl/min was followed by capture of biotinylated Fusion E2153 anti-m4G7 purified sub-clones antibodies and control antibodies at 10 μg/ml for 1 min at 10 μl/min.
The blocking effect of m4G7-hFab binding to hCD19 by the purified anti-Ids sub-clones from Fusion E2153 was determined by the sandwich assay at 25° C. Sample 1 was injected for 2 min at 30 μL/min followed by 10 sec in buffer then Sample 2 was injected for 2 min at 30 μL/min followed by 3 min dissociation: […]

In assay [1] the target is T2, m4G7 hFab 8×His (human).
T2 construct: Immunogen and Biacore analyte; also called 4G7-human Fab-8×His fusion protein (E2153); m4G7-Fab; not shown: It lies between the VH and the 8xHis tag and is left out
As to the kind of experiment: Biacore SPR at 25 °C, biotinylated antibody captured on CAP chip, m4G7-hFab injected, 1:1 Binding fit printed under the sensorgram; the text (Table 3) calls this clone very high affinity, outside instrument limits. The method, then: as §1
(§2) For the kinetics assay, the buffer and m4G7-hFab at 1 nM, 10 nM, and 100 nM were injected for 2 min at 30 μL/min followed by 5 min dissociation.

In assay [2] the target is T2, m4G7 hFab 8×His. As to the kind of experiment: SPR (Biacore, 25° C.), biotinylated antibody captured on CAP chip, m4G7-hFab as analyte. Here is the method: as §1, §2

Numbering of substitutions follows the chain as printed.

T2 sequence (VH, as listed by the source limits assumed, chain 1 of 2): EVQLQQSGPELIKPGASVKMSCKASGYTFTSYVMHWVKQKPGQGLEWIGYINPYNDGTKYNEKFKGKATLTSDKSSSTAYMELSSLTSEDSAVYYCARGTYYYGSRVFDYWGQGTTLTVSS
T2 sequence (VL, as listed by the source limits assumed, chain 2 of 2): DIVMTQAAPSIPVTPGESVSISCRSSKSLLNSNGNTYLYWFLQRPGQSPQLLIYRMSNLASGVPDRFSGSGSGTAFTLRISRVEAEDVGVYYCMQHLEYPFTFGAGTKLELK

B1: E2153.4D7.E11 (antibody, V domains shown)
VH: QVQLQQSGAELVRPGTSVKVSCKASGYAFTNYLIEWVKQRPGQGLEWIGVITPGSGGSNYNEKFKGKATLTADKSSSTAYMQLSSLTSDDSAVYFCARWLDYDWFAYWGQGTLVTVSA
VL: DIKMTQSPSSMYASLGERVTITCKASQDINSYLSWFQQKPGKSPKTLIYRANRLVDGVPSRFSGSGSGQDYSLTISSLEYEDMGIYYCRQCDEFPSTFGGGTKLEIK
notes: Mouse hybridoma antibody; Biotinylated for the Biacore assays; PE-labelled in flow cytometry; also called Clone E11
For the molecule B1, in the assay with hCD19-HIS-AVI, the binding result is listed as “no binding (tested: 300 nM)”. In the assay with m4G7 hFab 8×His [1], this molecule came in with a Kd of 0.00936 nM, a koff of 3.65e-05 s⁻¹ and a kon of 3.9e+06 M⁻¹ s⁻¹.

B2: E2153.1C4.E2 (antibody, V domains shown)
VH: QVQLQQSGAELVKPGASVKVSCKAFGYTFTTYPIEWMRQNHGKSLEWIGNFHPYNDDTRYNEKFKDKAKLTVEKSSSTVYLELSRLTYDDSAVYYCTRGNDYDLYGMDYWGQGTSVTVSS
VL: B1 VL with S7F, S31T, S34T, R89L, E93D, S96L, G100A, I106L
notes: Mouse hybridoma antibody; Biotinylated for the Biacore assays; also called Clone E2
Regarding B2, the binding result with hCD19-HIS-AVI is reported as “no binding (tested: 300 nM)”. Moreover, in the assay with m4G7 hFab 8×His [2], the Kd is 0.0167 nM, the koff was 0.000128 s⁻¹, the kon turned out to be 7.65e+06 M⁻¹ s⁻¹ and the “t1/2” value worked out at 1.5 h.

B3: E2153.1D9.B4 (antibody, V domains shown)
VH: B1 VH with V37I, T52N, S58I, A72S
VL: B1 VL with S7F, L15V, R89L, S96F
notes: Mouse hybridoma antibody; Biotinylated for the Biacore assays; also called Clone B4
Take B3: in the assay with hCD19-HIS-AVI, the binding result was “no binding (tested: 300 nM)”. In the assay with m4G7 hFab 8×His [1], this molecule gave a Kd of 0.00489 nM, a koff of 1.58e-05 s⁻¹ and a kon of 3.22e+06 M⁻¹ s⁻¹.

B4: E2153.2H8.A8 (antibody, V domains shown)
VH: B2 VH
VL: DIKMTQSPSSMYASLGERVTITCKASQDINTYLTWFQQKPGKSPKTLIYRANRLVDGVPSRFSGSGSGQDYSLTISSLEYEDMGIYYCLQCDDFPLTFGAGTKLELKR
notes: Mouse IgG1/kappa hybridoma antibody; Biotinylated for the Biacore assays; also called Clone A8; anti-UCART19 idiotype antibody A8
With B4, the binding result with hCD19-HIS-AVI is “no binding (tested: 300 nM)”. In the assay with m4G7 hFab 8×His [2], binding was put at a Kd of 0.0144 nM, the off-rate constant (koff) was determined as 0.000106 s⁻¹, the kon was determined as 7.35e+06 M⁻¹ s⁻¹ and the “t1/2” value was 1.82 h.
